The target in test [1] is T1, SARS-CoV-2 Wuhan-Hu-1 S蛋白(Sino Biological，货号:40589-V08B1) (SARS-CoV-2 Wuhan-Hu-1, UniProt P0DTC2 14-1213).
T1 construct: extracellular domain
Kind of test: ELISA screen, S protein coated at 2 μg/mL, antibody at 1 μg/mL.

The test “SARS-CoV-2 S2蛋白(Sino …)” deals with T2, SARS-CoV-2 S2蛋白(Sino Biological，货号:40590-V08B) (SARS-CoV-2, UniProt P0DTC2 686-1213).
T2 construct: domain: S2
The experiment in a line: ELISA, S2 protein coated at 2 μg/mL, antibody at 1 μg/mL, anti-human IgG-HRP. (In general: An ELISA detects its analyte on a solid surface through an enzyme-linked reagent.)

The target in the test “SARS-CoV-2 S1蛋白(Sino …)” is T3, SARS-CoV-2 S1蛋白(Sino Biological，货号:40591-V08H) (SARS-CoV-2, UniProt P0DTC2 16-685).
T3 construct: domain: S1
The experiment in a line: ELISA, S1 protein coated at 2 μg/mL, antibody at 1 μg/mL.

The test “SARS-CoV S1蛋白(Sino …)” concerns the target SARS-CoV S1蛋白(Sino Biological，货号:40150-V08B1) (SARS-CoV, UniProt P59594 14-667). The experiment in a line: ELISA, S1 protein coated at 2 μg/mL, antibody titrated from 10 μg/mL.
Test [2] has as its target SARS-CoV-2 Gamma突变株S蛋白 (假病毒, Genebank:MZ427312.1) (SARS-CoV-2 Gamma突变株). The experiment in a line: cell-based or functional assay.

Results on one molecule are retold here after patent CN118638216A (CHENZHOU NO 1 PEOPLES HOSPITAL, dated 2024).

B1: 全人源广谱抗sarbecovirus和/或新冠突变株的抗体(VSCM8-83) (antibody, V domains shown)
VH: EVQLVEFGGGLVQPGGSLRLSCAASGFAVSSNYMSWVRQAPGKGLEWVSVIYGDGTTYYGDSVKGRFTISRHNSKNTLYLQMNSLRTEDTAVYYCARIVSEAFDLWGQGTMVTVSS
VL: DIQMTQSPSTLSASVGDRVTITCRASQSIGRWLAWYQQKPGKAPKLLIYMASILESGVPSRFSGSGSATEFTLTISSLQPDDFATYYCQQYNGYSQYTFGQGTKLEIKR
For B1, the binding result in test [1] is reported as “binds”; in the test with SARS-CoV-2 S2蛋白(Sino …), “no binding (tested: 1μg/mL)”; with SARS-CoV-2 S1蛋白(Sino …) it was “binds”; in the test with SARS-CoV S1蛋白(Sino …), “binds”. Also, in test [2], the “假病毒中和 IC50” value was found to be 0.0207 µg/mL.
